Source: article PMC9813358, “Insights into the GSDMB-mediated cellular lysis and its targeting by IpaH7.8” (Nature Communications, 2023)

T1: GSDMB (residues 1-411) (human, UniProt Q8TAX9-1 1-411)
T1 chain: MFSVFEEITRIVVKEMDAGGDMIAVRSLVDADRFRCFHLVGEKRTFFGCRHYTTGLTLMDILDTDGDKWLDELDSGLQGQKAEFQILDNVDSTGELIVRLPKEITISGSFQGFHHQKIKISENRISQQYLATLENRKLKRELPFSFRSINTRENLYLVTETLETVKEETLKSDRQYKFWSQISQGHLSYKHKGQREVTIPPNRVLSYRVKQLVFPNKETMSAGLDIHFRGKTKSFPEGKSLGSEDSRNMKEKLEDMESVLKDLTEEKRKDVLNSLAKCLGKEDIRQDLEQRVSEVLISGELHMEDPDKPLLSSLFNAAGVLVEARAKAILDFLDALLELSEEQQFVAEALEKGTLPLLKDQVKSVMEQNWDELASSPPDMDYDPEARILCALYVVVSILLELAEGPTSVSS

T2: GSDMB (residues 1-411) (human, UniProt Q8TAX9-1 1-411)
T2 construct: residues 1-411; For the crystal the complex was obtained by co-transforming the GSDMB and IpaH7.8 plasmids; limits 1-411 are stated for the crystallised protein; also called gasdermin B; WT GSDMB; source: E. coli BL21 (DE3), purified (Ni-NTA, anion exchange, SEC); not shown: His, N-terminal, cleaved; MBP, N-terminal, cleaved
T2 sequence: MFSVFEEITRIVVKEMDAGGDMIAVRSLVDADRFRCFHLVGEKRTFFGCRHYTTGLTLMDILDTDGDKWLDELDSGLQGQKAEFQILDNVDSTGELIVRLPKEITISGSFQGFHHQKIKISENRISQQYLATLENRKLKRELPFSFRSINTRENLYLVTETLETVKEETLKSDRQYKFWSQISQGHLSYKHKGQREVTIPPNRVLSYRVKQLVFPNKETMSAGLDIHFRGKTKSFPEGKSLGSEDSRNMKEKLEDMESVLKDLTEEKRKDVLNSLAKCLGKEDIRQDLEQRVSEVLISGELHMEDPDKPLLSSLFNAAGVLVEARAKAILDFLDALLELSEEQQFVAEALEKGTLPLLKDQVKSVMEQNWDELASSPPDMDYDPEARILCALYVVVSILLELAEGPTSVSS

B1: IpaH7.8 protein (residues 23–565) (enzyme)
chain: SNEHYLRILTEWEKNSSPGEERGIAFNRLSQCFQNQEAVLNLSDLNLTSLPELPKHISALIVENNKLTSLPKLPAFLKELNADNNRLSVIPELPESLTTLSVRSNQLENLPVLPNHLTSLFVENNRLYNLPALPEKLKFLHVYYNRLTTLPDLPDKLEILCAQRNNLVTFPQFSDRNNIRQKEYYFHFNQITTLPESFSQLDSSYRINISGNPLSTRVLQSLQRLTSSPDYHGPQIYFSMSDGQQNTLHRPLADAVTAWFPENKQSDVSQIWHAFEHEEHANTFSAFLDRLSDTVSARNTSGFREQVAAWLEKLSASAELRQQSFAVAADATESCEDRVALTWNNLRKTLLVHQASEGLFDNDTGALLSLGREMFRLEILEDIARDKVRTLHFVDEIEVYLAFQTMLAEKLQLSTAVKEMRFYGVSGVTANDLRTAEAMVRSREENEFTDWFSLWGPWHAVLKRTEADRWAQAEEQKYEMLENEYSQRVADRLKASGLSGDADAEREAGAQVMRETEQQIYRQLTDEVLALRLSENGSRLHHS
notes: IpaH7.8, type III secretion effector and E3 ubiquitin ligase of Shigella flexneri; residues 23-565; synthesized fragment; Limits 23-565 are stated for the SEC experiment; source: E. coli BL21 (DE3), purified (Ni-NTA, anion exchange, SEC); not shown: His, N-terminal, cleaved

Experiments:
[1] = molecular target: B1; assay: ITC; MicroCal PEAQ-ITC, 25 °C; IpaH7.8 proteins injected into the cell containing GSDMB or GSDMD proteins; 25 mM Tris-HCl pH 8.0, 150 mM NaCl unless otherwise stated (one titration of IpaH7.8 into GSDMB in a high salt buffer); details: both partners purified
GSDMB (residues 1-411) [2] = molecular target: T1, GSDMB (residues 1-411); assay: ITC
GSDMB (residues 1-411) [3] = molecular target: T2, GSDMB (residues 1-411); assay: ITC; MicroCal PEAQ-ITC, 25 °C; IpaH7.8 proteins injected into the cell containing GSDMB or GSDMD proteins; 25 mM Tris-HCl pH 8.0, 150 mM NaCl unless otherwise stated (one titration of IpaH7.8 into GSDMB in a high salt buffer); details: both partners purified
GSDMB (residues 1-411) [4] = molecular target: T1, GSDMB (residues 1-411); assay: ITC; 500 mM NaCl

Row | Binder | binding result [1] | Kd (GSDMB (residues 1-411) [2]) [nM] | binding affinity in a high salt buffer against that in the standard buffer (GSDMB (residues 1-411) [3]) [fold] | Kd (GSDMB (residues 1-411) [4]) [nM]
1 | human GSDMD (natural protein, also called hGSDMD; WT hGSDMD; source: E. coli BL21 (DE3), purified (same protocol as GSDMB); not shown: His, N-terminal, cleaved; MBP, N-terminal, cleaved) MGSAFERVVRRVVQELDHGGEFIPVTSLQSSTGFQPYCLVVRKPSSSWFWKPRYKCVNLSIKDILEPDAAEPDVQRGRSFHFYDAMDGQIQGSVELAAPGQAKIAGGAAVSDSSSTSMNVYSLSVDPNTWQTLLHERHLRQPEHKVLQQLRSRGDNVYVVTEVLQTQKEVEVTRTHKREGSGRFSLPGATCLQGEGQGHLSQKKTVTIPSGSTLAFRVAQLVIDSDLDVLLFPDKKQRTFQPPATGHKRSTSEGAWPQLPSGLSMMRCLHNFLTDGVPAEGAFTEDFQGLRAEVETISKELELLDRELCQLLLEGLEGVLRDQLALRALEEALEQGQSLGPVEPLDGPAGAVLECLVLSSGMLVPELAIPVVYLLGALTMLSETQHKLLAEALESQTLLGPLELVGSLLEQSAPWQERSTMSLPPGLLGNSWGEGAPAWVLLDECGLELGEDTPHVCWEPQAQGRMCALYASLALLSGLSQEPH | binds |  |  | 
2 | hGSDMD S124R (natural protein, human, UniProt P57764 1-484, looked up, GSDMD, human, isoform 1 of UniProtKB P57764; construct as m34; also called hGSDMD bearing the S124R mutation; source: E. coli BL21 (DE3), purified (same protocol as GSDMB); not shown: His, N-terminal, cleaved; MBP, N-terminal, cleaved) MGSAFERVVRRVVQELDHGGEFIPVTSLQSSTGFQPYCLVVRKPSSSWFWKPRYKCVNLSIKDILEPDAAEPDVQRGRSFHFYDAMDGQIQGSVELAAPGQAKIAGGAAVSDSSSTSMNVYSLRVDPNTWQTLLHERHLRQPEHKVLQQLRSRGDNVYVVTEVLQTQKEVEVTRTHKREGSGRFSLPGATCLQGEGQGHLSQKKTVTIPSGSTLAFRVAQLVIDSDLDVLLFPDKKQRTFQPPATGHKRSTSEGAWPQLPSGLSMMRCLHNFLTDGVPAEGAFTEDFQGLRAEVETISKELELLDRELCQLLLEGLEGVLRDQLALRALEEALEQGQSLGPVEPLDGPAGAVLECLVLSSGMLVPELAIPVVYLLGALTMLSETQHKLLAEALESQTLLGPLELVGSLLEQSAPWQERSTMSLPPGLLGNSWGEGAPAWVLLDECGLELGEDTPHVCWEPQAQGRMCALYASLALLSGLSQEPH | binds |  |  | 
3 | N-terminal LRR domain (residues 23–264) of IpaH7.8 (domain or fragment) SNEHYLRILTEWEKNSSPGEERGIAFNRLSQCFQNQEAVLNLSDLNLTSLPELPKHISALIVENNKLTSLPKLPAFLKELNADNNRLSVIPELPESLTTLSVRSNQLENLPVLPNHLTSLFVENNRLYNLPALPEKLKFLHVYYNRLTTLPDLPDKLEILCAQRNNLVTFPQFSDRNNIRQKEYYFHFNQITTLPESFSQLDSSYRINISGNPLSTRVLQSLQRLTSSPDYHGPQIYFSMSD |  | 90 |  | 
4 | B1 |  | 94 | 0.5 | 163
